Results from patent publication US20190194323A1 (ALLAKOS, published 2019).

What follows are binders tested against T1, Siglec-7-ECD (human, UniProt Q9Y286 19-353) (assay: monovalent Fab; bio-layer interferometry (ForteBio) per Methods).
T1 construct: also called p75; AIRM
T1 sequence (Q9Y286 19-353 limits assumed): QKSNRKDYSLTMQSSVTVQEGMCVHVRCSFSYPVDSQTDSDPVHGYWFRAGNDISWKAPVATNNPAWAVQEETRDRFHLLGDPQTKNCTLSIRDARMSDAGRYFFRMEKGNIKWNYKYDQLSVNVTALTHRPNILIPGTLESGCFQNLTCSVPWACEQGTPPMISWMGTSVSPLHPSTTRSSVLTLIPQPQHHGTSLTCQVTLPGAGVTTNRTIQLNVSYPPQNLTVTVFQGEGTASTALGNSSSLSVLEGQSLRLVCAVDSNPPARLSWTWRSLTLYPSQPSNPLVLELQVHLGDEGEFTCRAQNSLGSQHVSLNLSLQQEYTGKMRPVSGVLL

Binder | Kd
humanized 16H11-derived Fab, VH AK446-7 / VL AK418-2 (Fab, V domains shown, Measured as monovalent Fab; also called No. 33; AK446-7/AK418-2) VH: QVQLVQSGAEVKKPGSSVKVSCKASGYDFSNFWMNWVRQAPGQGLEWMGQIYPGDGEIKYNQKFQGRVTITADESTSTAYMELSSLRSEDTAVYYCARDDYLRAMDIWGQGTMVTVSS VL: DIQMTQSPSSLSASVGDRVTITCRASGNIHNYLAWYQQKPGKAPKFLLYSAKRLESGVPSRFSGSGSGTDYTLTISSLQPEDFATYYCQHFWSSPYTFGGGTKVEIK | < 75 pM
humanized 16H11-derived Fab, VH AK417-17 / VL AK426-2 (Fab, V domains shown, Measured as monovalent Fab; also called No. 9) VH: QVQLVQSGAEVKKPGSSVKVSCKASGYDFSNFWMNWVRQAPGQGLEWMGGIYPGDGEINYAQKFQGRVTITADESTSTAYMELSSLRSEDTAVYYCARDDYLRAMDIWGQGTMVTVSS VL: DIQMTQSPSSLSASVGDRVTITCRASQNIHNYLAWYQQKPGKAPKLLLYSAKRLASGVPSRFSGSGSGTDYTLTISSLQPEDFATYYCQHFWSSPYTFGGGTKVEIK | > 500 pM
humanized 16H11-derived Fab, VH AK417-17 / VL AK439-5 (Fab, V domains shown, Measured as monovalent Fab; also called No. 21) VH: QVQLVQSGAEVKKPGSSVKVSCKASGYDFSNFWMNWVRQAPGQGLEWMGGIYPGDGEINYAQKFQGRVTITADESTSTAYMELSSLRSEDTAVYYCARDDYLRAMDIWGQGTMVTVSS VL: DIQMTQSPSSLSASVGDRVTITCRASQNIHNYLAWYQQKPGKAPKFLLYSAKRLEDGVPSRFSGSGSGTDYTLTISSLQPEDFATYYCQHFWSSPYTFGQGTKLEIK | 250 to 500 pM
humanized 16H11-derived Fab, VH AK446-7 / VL AK448-3 (Fab, V domains shown, Measured as monovalent Fab; also called No. 34; AK446-7/AK448-3) VH: QVQLVQSGAEVKKPGSSVKVSCKASGYDFSNFWMNWVRQAPGQGLEWMGQIYPGDGEIKYNQKFQGRVTITADESTSTAYMELSSLRSEDTAVYYCARDDYLRAMDIWGQGTMVTVSS VL: DIQMTQSPSSLSASVGDRVTITCRASQNIHNYLAWYQQKPGKAPKFLLYSAKRLESGVPSRFSGSGSGTDYTLTISSLQPEDFATYYCQHFWSSPYTFGQGTKLEIK | < 75 pM
humanized 16H11-derived Fab, VH AK410-1 / VL AK418-2 (Fab, V domains shown, Measured as monovalent Fab; also called No. 1; AK410-1/AK418-2) VH: QVQLVQSGAEVKKPGSSVKVSCKASGYDFSNFWMNWVRQAPGQGLEWMGGIYPGDGEINYAQKFQGRVTITADESTSTAYMELSSLRSEDTAVYYCARDDYLRAMDYWGQGTLVTVSS VL: DIQMTQSPSSLSASVGDRVTITCRASGNIHNYLAWYQQKPGKAPKFLLYSAKRLESGVPSRFSGSGSGTDYTLTISSLQPEDFATYYCQHFWSSPYTFGGGTKVEIK | 250 to 500 pM
humanized 16H11-derived Fab, VH AK417-17 / VL AK425-3 (Fab, V domains shown, Measured as monovalent Fab; also called No. 8) VH: QVQLVQSGAEVKKPGSSVKVSCKASGYDFSNFWMNWVRQAPGQGLEWMGGIYPGDGEINYAQKFQGRVTITADESTSTAYMELSSLRSEDTAVYYCARDDYLRAMDIWGQGTMVTVSS VL: DIQMTQSPSSLSASVGDRVTITCRASGNIHNYLAWYQQKPGKAPKLLLYSAKRLEDGVPSRFSGSGSGTDYTLTISSLQPEDFATYYCQHFWSSPYTFGGGTKVEIK | > 500 pM
humanized 16H11-derived Fab, VH AK438-4 / VL AK418-2 (Fab, V domains shown, Measured as monovalent Fab; also called No. 17; VH438-4 and VL418-2) VH: QVQLVQSGAEVKKPGSSVKVSCKASGYDFSNFWMNWVRQAPGQGLEWMGQIYPGDGEIKYNQKFQGRVTLTADESTSTAYMELSSLRSEDTAVYFCARDDYLRAMDYWGQGTLVTVSS VL: DIQMTQSPSSLSASVGDRVTITCRASGNIHNYLAWYQQKPGKAPKFLLYSAKRLESGVPSRFSGSGSGTDYTLTISSLQPEDFATYYCQHFWSSPYTFGGGTKVEIK | < 75 pM
humanized 16H11-derived Fab, VH AK449-4 / VL AK448-3 (Fab, V domains shown, Measured as monovalent Fab; also called No. 29; VH449-4 and VL448-3) VH: QVQLVQSGAEVKKPGSSVKVSCKASGYDFSNFWMNWVRQAPGQGLEWMGGIYPGDGEIKYNQKFQGRVTITADESTSTAYMELSSLRSEDTAVYYCARDDYLRAMDIWGQGTMVTVSS VL: DIQMTQSPSSLSASVGDRVTITCRASQNIHNYLAWYQQKPGKAPKFLLYSAKRLESGVPSRFSGSGSGTDYTLTISSLQPEDFATYYCQHFWSSPYTFGQGTKLEIK | < 100 pM
humanized 16H11-derived Fab, VH AK447-2 / VL AK448-3 (Fab, V domains shown, Measured as monovalent Fab; also called No. 27) VH: QVQLVQSGAEVKKPGSSVKVSCKASGYDFSNFWMNWVRQAPGQGLEWMGQIYPGDGEINYNQKFQGRVTITADESTSTAYMELSSLRSEDTAVYYCARDDYLRAMDIWGQGTMVTVSS VL: DIQMTQSPSSLSASVGDRVTITCRASQNIHNYLAWYQQKPGKAPKFLLYSAKRLESGVPSRFSGSGSGTDYTLTISSLQPEDFATYYCQHFWSSPYTFGQGTKLEIK | 75 to 150 pM
humanized 16H11-derived Fab, VH AK444-2 / VL AK418-2 (Fab, V domains shown, Measured as monovalent Fab; also called No. 24; VH444-2 and VL418-2) VH: QVQLVQSGAEVKKPGSSVKVSCKASGYDFSNFWMNWVRQAPGQGLEWMGQIYPGDGEIKYNQKFQGRVTITADESTSTAYMELSSLRSEDTAVYFCARDDYLRAMDYWGQGTLVTVSS VL: DIQMTQSPSSLSASVGDRVTITCRASGNIHNYLAWYQQKPGKAPKFLLYSAKRLESGVPSRFSGSGSGTDYTLTISSLQPEDFATYYCQHFWSSPYTFGGGTKVEIK | < 75 pM
humanized 16H11-derived Fab, VH AK447-2 / VL AK418-2 (Fab, V domains shown, Measured as monovalent Fab; also called No. 26) VH: QVQLVQSGAEVKKPGSSVKVSCKASGYDFSNFWMNWVRQAPGQGLEWMGQIYPGDGEINYNQKFQGRVTITADESTSTAYMELSSLRSEDTAVYYCARDDYLRAMDIWGQGTMVTVSS VL: DIQMTQSPSSLSASVGDRVTITCRASGNIHNYLAWYQQKPGKAPKFLLYSAKRLESGVPSRFSGSGSGTDYTLTISSLQPEDFATYYCQHFWSSPYTFGGGTKVEIK | 75 to 150 pM
humanized 16H11-derived Fab, VH AK446-7 / VL AK419-2 (Fab, V domains shown, Measured as monovalent Fab; also called No. 37) VH: QVQLVQSGAEVKKPGSSVKVSCKASGYDFSNFWMNWVRQAPGQGLEWMGQIYPGDGEIKYNQKFQGRVTITADESTSTAYMELSSLRSEDTAVYYCARDDYLRAMDIWGQGTMVTVSS VL: DIQMTQSPSSLSASVGDRVTITCRASQNIHNYLAWYQQKPGKAPKFLLYSAKRLESGVPSRFSGSGSGTDYTLTISSLQPEDFATYYCQHFWSSPYTFGGGTKVEIK | > 500 pM
humanized 16H11-derived Fab, VH AK417-17 / VL AK421-3 (Fab, V domains shown, Measured as monovalent Fab; also called No. 5) VH: QVQLVQSGAEVKKPGSSVKVSCKASGYDFSNFWMNWVRQAPGQGLEWMGGIYPGDGEINYAQKFQGRVTITADESTSTAYMELSSLRSEDTAVYYCARDDYLRAMDIWGQGTMVTVSS VL: DIQMTQSPSSLSASVGDRVTITCRASGNIHNYLAWYQQKPGKAPKFLLYSAKRLESGVPSRFSGSGSGTDYTLTISSLQPEDFATYYCQHFWSSPYTFGQGTKLEIK | 250 to 500 pM
humanized 16H11-derived Fab, VH AK417-8 / VL AK439-5 (Fab, V domains shown, Measured as monovalent Fab; also called No. 22) VH: QVQLVQSGAEVKKPGSSVKVSCKASGYDFSNFWMNWVRQAPGQGLEWMGGIYPGDGEINYAQKFQGRVTITADESTSTAYMELSSLRSEDTAVYYCARDDYLRAMDVWGQGTMVTVSS VL: DIQMTQSPSSLSASVGDRVTITCRASQNIHNYLAWYQQKPGKAPKFLLYSAKRLEDGVPSRFSGSGSGTDYTLTISSLQPEDFATYYCQHFWSSPYTFGQGTKLEIK | 250 pM
humanized 16H11-derived Fab, VH AK449-4 / VL AK418-2 (Fab, V domains shown, Measured as monovalent Fab; also called No. 28) VH: QVQLVQSGAEVKKPGSSVKVSCKASGYDFSNFWMNWVRQAPGQGLEWMGGIYPGDGEIKYNQKFQGRVTITADESTSTAYMELSSLRSEDTAVYYCARDDYLRAMDIWGQGTMVTVSS VL: DIQMTQSPSSLSASVGDRVTITCRASGNIHNYLAWYQQKPGKAPKFLLYSAKRLESGVPSRFSGSGSGTDYTLTISSLQPEDFATYYCQHFWSSPYTFGGGTKVEIK | 75 to 150 pM
humanized 16H11-derived Fab, VH AK440-2 / VL AK418-2 (Fab, V domains shown, Measured as monovalent Fab; also called No. 18; VH440-2 and VL418-2) VH: QVQLVQSGAEVKKPGSSVKVSCKGSGYDFSNFWMNWVRQAPGQGLEWMGQIYPGDGEIKYNQKFQGRVTITADESTSTAYMELSSLRSEDTAVYFCARDDYLRAMDYWGQGTLVTVSS VL: DIQMTQSPSSLSASVGDRVTITCRASGNIHNYLAWYQQKPGKAPKFLLYSAKRLESGVPSRFSGSGSGTDYTLTISSLQPEDFATYYCQHFWSSPYTFGGGTKVEIK | < 100 pM
humanized 16H11-derived Fab, VH AK441-2 / VL AK418-2 (Fab, V domains shown, Measured as monovalent Fab; also called No. 19; VH441-2 and VL418-2) VH: QVQLVQSGAEVKKPGSSVKVSCKGSGYDFSNFWMNWVRQAPGQGLEWMGQIYPGDGEIKYNQKFQGRVTLTADESTSTAYMELSSLRSEDTAVYYCARDDYLRAMDIWGQGTMVTVSS VL: DIQMTQSPSSLSASVGDRVTITCRASGNIHNYLAWYQQKPGKAPKFLLYSAKRLESGVPSRFSGSGSGTDYTLTISSLQPEDFATYYCQHFWSSPYTFGGGTKVEIK | < 75 pM
humanized 16H11-derived Fab, VH AK417-17 / VL AK427-1 (Fab, V domains shown, Measured as monovalent Fab; also called No. 10) VH: QVQLVQSGAEVKKPGSSVKVSCKASGYDFSNFWMNWVRQAPGQGLEWMGGIYPGDGEINYAQKFQGRVTITADESTSTAYMELSSLRSEDTAVYYCARDDYLRAMDIWGQGTMVTVSS VL: DIQMTQSPSSLSASVGDRVTITCRASQNIHNYLAWYQQKPGKAPKLLLYSAKRLEDGVPSRFSGSGSGTDYTLTISSLQPEDFATYYCQHFWSSPYTFGGGTKVEIK | > 500 pM
humanized 16H11-derived Fab, VH AK387-11 / VL AK418-2 (Fab, V domains shown, Measured as monovalent Fab; also called No. 32; VH387-11 and VL418-2) VH: QVQLVQSGAEVKKPGSSVKVSCKGSGYDFSNFWMNWVRQAPGQGLEWMGQIYPGDGEIKYNQKFQGRVTLTADESTSTAYMELSSLRSEDTAVYFCARDDYLRAMDYWGQGTLVTVSS VL: DIQMTQSPSSLSASVGDRVTITCRASGNIHNYLAWYQQKPGKAPKFLLYSAKRLESGVPSRFSGSGSGTDYTLTISSLQPEDFATYYCQHFWSSPYTFGGGTKVEIK | < 75 pM
humanized 16H11-derived Fab, VH AK417-17 / VL AK424-1 (Fab, V domains shown, Measured as monovalent Fab; also called No. 7) VH: QVQLVQSGAEVKKPGSSVKVSCKASGYDFSNFWMNWVRQAPGQGLEWMGGIYPGDGEINYAQKFQGRVTITADESTSTAYMELSSLRSEDTAVYYCARDDYLRAMDIWGQGTMVTVSS VL: DIQMTQSPSSLSASVGDRVTITCRASGNIHNYLAWYQQKPGKAPKLLLYSAKRLASGVPSRFSGSGSGTDYTLTISSLQPEDFATYYCQHFWSSPYTFGGGTKVEIK | > 500 pM
humanized 16H11-derived Fab, VH AK443-1 / VL AK418-2 (Fab, V domains shown, Measured as monovalent Fab; also called No. 23; VH443-1 and VL418-2) VH: QVQLVQSGAEVKKPGSSVKVSCKGSGYDFSNFWMNWVRQAPGQGLEWMGQIYPGDGEIKYNQKFQGRVTITADESTSTAYMELSSLRSEDTAVYYCARDDYLRAMDIWGQGTMVTVSS VL: DIQMTQSPSSLSASVGDRVTITCRASGNIHNYLAWYQQKPGKAPKFLLYSAKRLESGVPSRFSGSGSGTDYTLTISSLQPEDFATYYCQHFWSSPYTFGGGTKVEIK | < 75 pM
humanized 16H11-derived Fab, VH AK445-3 / VL AK418-2 (Fab, V domains shown, Measured as monovalent Fab; also called No. 25; VH445-3 and VL418-2) VH: QVQLVQSGAEVKKPGSSVKVSCKASGYDFSNFWMNWVRQAPGQGLEWMGQIYPGDGEIKYNQKFQGRVTLTADESTSTAYMELSSLRSEDTAVYYCARDDYLRAMDIWGQGTMVTVSS VL: DIQMTQSPSSLSASVGDRVTITCRASGNIHNYLAWYQQKPGKAPKFLLYSAKRLESGVPSRFSGSGSGTDYTLTISSLQPEDFATYYCQHFWSSPYTFGGGTKVEIK | < 75 pM
